These results are taken from US20140072558A1.

The assay concerns the target ACVR2B as used in surface plasmon resonance (UniProt Q13705). The assay is described as follows: SPR; with 0.625 nM B09. A general note: SPR reads the build-up and loss of mass on a sensor chip optically.

Sequence of ACVR2B as used in surface plasmon resonance (Q13705 19-134): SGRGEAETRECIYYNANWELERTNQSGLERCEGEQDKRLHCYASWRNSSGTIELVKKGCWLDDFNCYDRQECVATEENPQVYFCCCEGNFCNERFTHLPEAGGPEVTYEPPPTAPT

Consider “water-soluble DLK1 treated together with the B09 antibody (from UniProt P80370 25-302)”, for which the Kd was 4.07E-10 ?.
